Experimental data published in patent publication US12215162B2, “BAFF-R targeted chimeric antigen receptor-modified T-cells and uses thereof” (CITY OF HOPE, priority 2016, dated 2025).

Assays:
[1] = system: JeKo-1, SU-DHL-6, Raji, and RL; assay: Flow cytometry binding to non-Hodgkin lymphoma lines; parameters: species or system human; conditions: Alexa Fluor 488 conjugated chimeric antibody
Description: FIGS. 1A, 1B, 1C, 1D and 1E are FACS images showing generation and specificity of novel monoclonal antibodies against human BAFF-R. FIG. 1A is a FACS analysis of cell surface expression of hBAFF-R-GFP fusion protein in mouse fibroblast L cells. Gated on GFP-positive cells, engineered L cell clone (right plot) is compared to parental L cells (left plot). Clone D2C was selected for further studies. FIGS. 1B, 1C, 1D and 1E are FACS traces of fluorescent counts of anti-BAFF-R antibodies binding cell lines and patient samples. […] BAFF-R-negative 293T embryonic kidney cell line was used as a control. […] Parental L cells and secondary anti-hIgG-APC antibodies only were used as controls. […] The data are representative of three independent experiments. For all of FIGS. 1B-1E, the traces from top to bottom as shown in the figures correlate with the variables (e.g., antibody type or cell type) used from top to bottom shown below or next to the figures.
FIG. 10 are results of FACS analyses showing hBAFF-R mAbs recognized non-Hodgkin lymphoma cell lines in vitro. […] The traces from top to bottom as shown in the figures correlate with the variables (e.g., antibody type or cell type) used from top to bottom shown next to the figures.

[2] = system: BAFF-R-expressing L cells and JeKo-1; assay: ADCC chromium-51 release assay with NK cells; format: cell-based; conditions: NK cells E:T 20:1; controls parental L cells and U266
Description: Antibody-induced cytotoxicities measured by chromium-51 release after incubation with C55, C90, or rituximab and effectors (NK cells or complement containing serum). NK effector cell to target ratio (E:T) of 20:1. […] Data are shown as the mean±s.d. of triplicate samples. *P<0.05 compared with NK cells by two-tailed Student's t-test.
FIG. 12 is a graph showing chimeric antibodies induced ADCC against BAFF-R expressing L cells. BAFF-R-expressing D2C L cells (targets) were labeled with chromium-51 followed by incubation overnight with chimeric mAb+NK cells (effector to target ratio, 20:1). Culture supernatant was analyzed for released chromium.
(§1) Cytotoxicity assays. Target cells (L cells, human tumor lines, primary patient samples) were labeled with chromium-51 (51Cr, Perkin Elmer, Waltham, MA) for a 51Cr release assay. Briefly, antibodies and effectors (NK cells or complement serum standard [Sigma Aldrich, St. Louis, MO]), were added to labeled target cells and incubated up to 18 hours. NK cells were enriched from PBMC (NK cell enrichment kit, Stemcell Technologies, Vancouver, Canada). 51Cr released into supernatant was detected with a Wizard Automatic Gamma Counter (Perkin Elmer).

[3] = system: primary CLL and MCL samples; assay: ADCC against primary samples from rituximab-treated patients; format: cell-based, human; conditions: CLL (n=3) and MCL (n=2), E:T 20:1
Description: FIGS. 3A and 3B are graphs showing BAFF-R monoclonal antibodies induce in vitro Antibody Dependent Cell-Mediated Cytotoxicity (ADCC) against primary B-cell tumors. Antibody-dependent cell-mediated cytotoxicity (ADCC) effects were measured by chromium-51 release after incubation with C55, C90, or rituximab and effectors (NK cells). […] Data are shown as the mean±s.d. of triplicate samples. *P<0.05 compared with NK cells by two-tailed Student's t-test.
as §1

Mino cells = assay: Internalization of antibody on Mino cells; format: cell-based, human; conditions: 37° C. for 1 hour
Description: Mino cells were incubated with mAb C90 (0.05 μg/10^6 cells) at 4° C. for 20 minutes followed by incubation at 37° C. for 1 hour. Flow cytometry analysis was performed with anti-mouse IgG-APC. Cells were gated for surface localized antibodies (OUT) and loss of cell surface staining (IN).

JeKo-1 (MCL) = assay: In vivo JeKo-1 MCL tumor model, antibody treatment; parameters: species or system NSG mice; conditions: 200 μg antibody + NK-92-176V cells + IL-2 IV, vs PBS or NK cells alone
Description: (§2) FIG. 4A is a schematic showing treatment schedule following Day 0 tumor challenge with minimum lethal dose of tumors. Treatments were given by IV tail vein injections. FIGS. 4B and 4C are images showing chimeric antibodies targeting human BAFF-R elicited in vivo therapeutic effects against B-cell tumors. Bioluminescence images of mice challenged with luciferase-expressing tumors: JeKo-1 (MCL) (FIG. 4B) or RS4; 11 (ALL) (FIG. 4C). Experimental groups received treatment of chimeric BAFF-R mAbs (C55 or C90, as indicated). Control group mice received PBS, NK cells alone, or rituximab on the same schedule. Data are representative of three independent experiments.
(§3) In vivo studies. For tumor models, stable, luciferase-expressing tumors lines were established for bioluminescent imaging in mouse models. Briefly, a luciferase gene was introduced into tumor lines by a lentivirus gene delivery system (pLenti7.3/V5-DEST Gateway Vector Kit, Life Technologies, Carlsbad, CA). The minimum lethal dose per mouse was determined for each tumor cell line by dose titration. Tumor cells were injected intravenously (IV) and mice were monitored by in vivo bioluminescence imaging for minimum tumor dose to ensure engraftment. Minimum lethal tumor doses were 1×10^6 JeKo-1, 5×10^5 RS4; 11, 5×10^5 JeKo-1-CD20-KO, or 2.5×10^4 Z-138 cells. […]

[4] = system: RS4; 11 (acute lymphoblastic leukemia, ALL); assay: In vivo RS4;11 ALL tumor model, antibody treatment; parameters: species or system NSG mice; conditions: 200 μg antibody + NK-92-176V cells + IL-2 IV
Description: as §2, §3

JeKo-1-CD20-KO clone 25 = assay: ADCC against rituximab-resistant JeKo-1-CD20-KO; format: cell-based, human; conditions: NK cells E:T 20:1
Description: FIGS. 5A, 5B and 5C are images or graphs showing chimeric BAFF-R antibodies induce ADCC on drug resistant lymphoma models in vitro. FIG. 5A is a scatterplot of FACS analysis showing CD20 binding on JeKo-1 cells following CRISPR/HDR knock-out of CD20 gene. CD20 expression on selected CD20−/−clone #25 compared to WT JeKo-1. ADCC effects measured by chromium-51 release after incubation with C55, C90, or rituximab and effectors NK cells (E:T=20:1). Percentage of cell specific lysis of target cells: rituximab-resistant JeKo-1-CD20-KO (FIG. 5B) and ibrutinib-resistant Z-138 and SP49-IR (FIG. 5C). All data are representative of two or more identical experiments. Data are shown as the mean±s.d. of triplicate samples. *P<0.05 compared with NK cells by two-tailed Student's t-test.
as §1
Generation of JeKo-1-CD20-KO. […]

JeKo-1-CD20-KO = assay: In vivo JeKo-1-CD20-KO tumor model, antibody treatment; parameters: species or system NSG mice
Description: (§4) FIGS. 6A and 6B are images and FIG. 6C are graphs showing chimeric antibodies targeting human BAFF-R elicited in vivo therapeutic effects against drug resistant B-cell tumors. Bioluminescence images of mice challenged with luciferase-expressing tumors JeKo-1-CD20-KO cells (FIG. 6A) or ibrutinib-resistant Z-138 cells (FIG. 6B) followed by antibody treatments as in FIG. 4. Control group mice received PBS, NK cells alone, or rituximab on the same schedule. […] Tumor free rate and survival differences between experimental and all control groups were analyzed by log-rank test (** P<0.001). Data are representative of three independent experiments.
as §3

Z-138 = assay: In vivo ibrutinib-resistant Z-138 tumor model, antibody treatment; parameters: species or system NSG mice; conditions: vs PBS or NK only
Description: as §4, §3

B1: C55: chimeric mAb from clone 55 containing human IgG1 constant regions (antibody, V domains shown)
VH: QVTLKESGPGILKPSQTLSLTCSFSGFSLSTSGMGVGWIRQPSGKGLEWLAHIWWDDDKYYNSSLKSHLTISKDTSRNQVFLKITSVDTADTATYYCARSFGYGLDYWGQGTTLTVSS
VL: DIQMTQTTSSLSASLGDRVTISCSASQDISNYLNWYQQKPDGTVKLLIYYTSSLHSGVPSRFSGSGSGTDYSLTISSLEPEDIATYYCHQFSELPWTFGGGTKLEIK
direct binding to NHL lines [1]: exhibited direct binding | antibody-dependent cell-mediated cytotoxicity (ADCC) [2]: elicited antibody-dependent cell-mediated cytotoxicity (ADCC) specifically against BAFF-R-expressing L cells and JeKo-1 | killing by ADCC [3]: sensitive to killing by ADCC | internalization upon binding BAFF-R (Mino cells): limited internalization | tumor growth (bioluminescence) (JeKo-1 (MCL)): significant retardation of tumor growth | tumor growth (bioluminescence) [4]: markedly retarded tumor growth | sensitivity to antibody-mediated cytotoxicity (JeKo-1-CD20-KO clone 25): retained sensitivity | tumor free and long-term overall survival (JeKo-1-CD20-KO; 80-day): significant antitumor effects | tumor burden by bioluminescent imaging (JeKo-1-CD20-KO; Day 20): no visible tumors | antitumor effects (Z-138): significant effects
